First the molecules themselves.
B2: Anterior Gradient 2 (AGR2), endogenous protein from PDAC cell lysate (SU86.86) (ligand)
chain: RDTTVKPGAKKDTKDSRPKLPQTLSRGWGDQLIWTQTYEEALYKSKTSNKPLMIIHHLDECPHSQALKKVFAENKEIQKLAEQFVLLNLVYETTDKHLSPDGQYVPRIMFVDPSLTVRADITGRYSNRLYAYEPADTALLLDNMKKALKLLKTEL
notes: Endogenous AGR2 of human pancreatic cancer cell lysates, used in IP and western blot; also called hAG-2; Gob-4

For test [1], the target named is T1, C4.4A (LYPD3), endogenous protein of PDAC cells (human, UniProt O95274 31-326).
T1 construct: On PDAC cells in the functional assays
T1 sequence: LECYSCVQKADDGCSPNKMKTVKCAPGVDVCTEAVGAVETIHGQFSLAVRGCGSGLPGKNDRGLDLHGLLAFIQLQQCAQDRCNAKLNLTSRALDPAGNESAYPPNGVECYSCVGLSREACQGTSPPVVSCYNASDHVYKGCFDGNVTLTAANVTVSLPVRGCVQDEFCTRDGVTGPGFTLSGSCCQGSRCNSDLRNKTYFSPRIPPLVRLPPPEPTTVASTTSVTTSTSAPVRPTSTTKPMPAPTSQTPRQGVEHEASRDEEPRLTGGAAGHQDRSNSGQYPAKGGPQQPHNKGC
Description: western blot (FIG. 5A). For orientation: A western blot detects proteins with antibodies after separation by electrophoresis.

Test [2] has as its target T2, C4.4A antigenic peptide (CPVRPTSTTKPMPAPTSQTPRQGVEHEASRDEEPRL; SEQ ID NO: 4) (human).
T2 peptide: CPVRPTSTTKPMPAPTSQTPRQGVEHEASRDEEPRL
Description: ELISA, antigenic peptide (0.5 ug) coated, probed with purified Ab (FIG. 11D). The procedure: (§1) FIGS. 11A-D. Monoclonal antibodies developed bind respectively to AGR2 and C4.4A proteins and blocked their functions. From the endogenous lysate (SU86.86/Panc-1), AGR2 (18 kD) and C4.4A (50 kD) were identified by a panel of mAbs. […] Extra bands identified with the endogenous protein were re-confirmed with the recombinant protein. For apoptosis studies, AsPC-1 cells were treated without or with Gem (0.5 μM) and rAGR2 (100 nM) and with purified (A) AGR2 and (B) C4.4A Abs (1 μM). Commercially available Abs served as control. […] Horizontal line represents median apoptotic value. Data shown are mean±SE for 3 experiments (*p<0.05). (C,D) Binding assays were conducted with purified (C) AGR2 and (D) C4.4A Abs as selected from the apoptosis assay as having high blocking efficiency. ELISA assays were conducted by coating antigenic peptide (0.5 μg) and probed with respective purified Abs. Data shown are mean±SE for 3 experiments (*p <0.05). Based on high specificity and binding, clone 28B for AGR2 and 1A for C4.4A were selected. Purified Abs were also run on 4-20% gradient gel to check for the presence of heavy (50 kD) and light chains (25 kD).
A general note: ELISA stands for enzyme-linked immunosorbent assay.

The target of another test is T3, dystroglycan-1 (DAG-1) (UniProt Q14118 30-895, limits assumed).
T3 construct: Endogenous protein of a PDAC cell lysate; also called Dystoglycan-1
T3 sequence (looked up): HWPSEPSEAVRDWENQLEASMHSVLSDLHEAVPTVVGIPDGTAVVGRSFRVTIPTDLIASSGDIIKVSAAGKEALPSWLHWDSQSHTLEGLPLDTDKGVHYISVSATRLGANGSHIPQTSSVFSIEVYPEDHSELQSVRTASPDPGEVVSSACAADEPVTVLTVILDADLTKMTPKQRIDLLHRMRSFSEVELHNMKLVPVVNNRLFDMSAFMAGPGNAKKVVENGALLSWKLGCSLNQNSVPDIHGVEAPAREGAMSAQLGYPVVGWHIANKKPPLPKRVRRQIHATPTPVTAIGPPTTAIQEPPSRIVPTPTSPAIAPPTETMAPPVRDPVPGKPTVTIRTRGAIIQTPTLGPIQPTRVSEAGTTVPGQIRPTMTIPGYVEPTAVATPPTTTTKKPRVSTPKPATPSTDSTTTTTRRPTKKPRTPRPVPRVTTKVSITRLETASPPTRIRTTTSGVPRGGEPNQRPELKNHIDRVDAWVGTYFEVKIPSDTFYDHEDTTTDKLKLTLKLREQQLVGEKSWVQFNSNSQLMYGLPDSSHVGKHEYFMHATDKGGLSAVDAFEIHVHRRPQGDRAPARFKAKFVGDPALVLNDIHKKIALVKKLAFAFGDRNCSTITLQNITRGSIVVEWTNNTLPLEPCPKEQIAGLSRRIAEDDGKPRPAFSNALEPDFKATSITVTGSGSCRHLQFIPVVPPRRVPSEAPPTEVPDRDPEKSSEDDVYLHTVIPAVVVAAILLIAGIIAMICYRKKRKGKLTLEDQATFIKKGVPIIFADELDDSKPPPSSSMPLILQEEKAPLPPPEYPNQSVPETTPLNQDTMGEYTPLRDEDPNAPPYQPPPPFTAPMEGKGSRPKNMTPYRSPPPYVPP
Briefly: co-immunoprecipitation from SU86.86 lysate with commercial anti-AGR2 antibody, western blot.

Test [3] concerns the target T1, C4.4A (LYPD3), endogenous protein of …. The description is as above.
Test [4] has as its target T4, AGR2 antigenic peptide (CIHHLDESPHSQALKKVFAENKEIQKLAEQ; SEQ ID NO: 3) (human).
T4 peptide: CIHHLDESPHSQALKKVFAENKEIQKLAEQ
Description: ELISA, antigenic peptide (0.5 ug) coated, probed with purified Ab (FIG. 11C). The procedure: as §1

Test [5] deals with B2. Description: western blot (FIG. 5A).
Test [6] deals with T5, human recombinant AGR2 (rAGR2) (ab64013, AbCam) (human, UniProt O95994 21-175, limits assumed).
T5 construct: also called extracellular AGR2
T5 sequence: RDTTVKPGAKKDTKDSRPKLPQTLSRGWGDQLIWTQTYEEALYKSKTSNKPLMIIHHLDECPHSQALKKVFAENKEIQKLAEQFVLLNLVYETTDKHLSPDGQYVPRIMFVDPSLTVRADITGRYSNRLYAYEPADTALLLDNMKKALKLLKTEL
Briefly: western blot (FIG. 5A).

B1: 162-1A-1 monoclonal antibody (antibody, V domains shown)
VH: EVMLVESGGGLVKPGGSLKLSCAASGFTFSSYTMSWVRQTPEKRLEWVASISSGGGNTYYADSVKGRFTMSRDNAKNNLYLQMSSLRSEDTALYYCARSYYYGISYDTYWGQGTLVTVSA
VL: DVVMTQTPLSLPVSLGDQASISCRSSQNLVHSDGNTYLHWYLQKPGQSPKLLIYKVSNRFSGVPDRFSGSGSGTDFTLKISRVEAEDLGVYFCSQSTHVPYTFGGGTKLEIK
notes: also called C4.4A mAb; clone 1A
B1: the binding result in test [1] and in test [2] was “binds” in each case.

Take B2: the binding result in the test with dystroglycan-1 (DAG-1) is recorded as “no binding”; in test [3], “binds”.

B3: 163-28B-1 monoclonal antibody (antibody, V domains shown)
VH: QIQLVQSGPELKKPGETVKISCKASGYTFTNYGMNWVKQAPGKGLKWMGWINTDTGKPTYTEEFKGRFAFSLATSASTAYLQINNLRNEDTATYFCGRVTADSMDYWGQGTSVTVSS
VL: DVVMTQTPLSLPVSLGDQASISCRSSQSLVHSNGNIYLHWFLQKPGQSPKLLIYKVSNRFSGVPDRFSGSGSGTDFTLKISRVEAEDLGVYFCSQSTHVPLTFGAGTKLELK
notes: also called AGR2 mAb; clone 28B
As for B3, the binding result in test [4], in test [5] and in test [6] was “binds” in each case.

These data come from patent US20170283509A1 (University of Texas, published 2017).
